Paper PMC2760644 (Journal of molecular biology, 2009)

Target: F-actin (chicken, UniProt P68139 1-377)
Test: co-sedimentation

B1: supervillin headpiece, wild type (domain or fragment)
chain: LAKLCKTIYPLADLLARPLPEGVDPLKLEIYLTDEDFEFALDMTRDEYNALPAWKQVNLKKAKGLF
In the case of B1, the Kd is reported as over 20 mM.
